We go through 41 molecules from PMC11417369, “DNA sequence and chromatin differentiate sequence-specific transcription factor binding in the human malaria parasite Plasmodium falciparum”.

Sequences and labels used below:
T1: AP2-LT D1 (Plasmodium falciparum, UniProt Q8IAM1 2520-2577)
T1 sequence: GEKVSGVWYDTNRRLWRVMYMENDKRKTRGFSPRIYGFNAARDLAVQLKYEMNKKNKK

B1: CACACA_negctrl_site344 (dsDNA)
DNA 1: TTTTGAATATGGATCTTATATATATTAAATAAATAA
DNA 2: TTATTTATTTAATATATATAAGATCCATATTCAAAA
B2: CACACA_negctrl_site170 (dsDNA)
DNA 1: TTTGTTAAAAATATATTATGAATAAAAATATATTTT
DNA 2: AAAATATATTTTTATTCATAATATATTTTTAACAAA
B3: CACACA_site2529 (dsDNA)
DNA 1: ACCTAAAATAACTACACACACATAAAAAAAAAAAAA
DNA 2: TTTTTTTTTTTTTATGTGTGTGTAGTTATTTTAGGT
B4: CACACA_negctrl_site797 (dsDNA)
DNA 1: AAATGTATAATTTTTTAATACACTTATTTAAAATAA
DNA 2: TTATTTTAAATAAGTGTATTAAAAAATTATACATTT
B5: CACACA_site8439 (dsDNA)
DNA 1: AGGTGAGCTCAGACTACACACACAAAGAAAAAAATA
DNA 2: TATTTTTTTCTTTGTGTGTGTAGTCTGAGCTCACCT
B6: CACACA_negctrl_site1012 (dsDNA)
DNA 1: ATAATTTCTATTTCACAAAAAAAAAAAAAAAAAAAA
DNA 2: TTTTTTTTTTTTTTTTTTTTGTGAAATAGAAATTAT
B7: CACACA_site3715 (dsDNA)
DNA 1: ATATATATATAATAAACACACAAATAGATATAACAT
DNA 2: ATGTTATATCTATTTGTGTGTTTATTATATATATAT
B8: CACACA_site1334 (dsDNA)
DNA 1: ATTACATACACGCGCACACACAAAAAAAAAAAAAAA
DNA 2: TTTTTTTTTTTTTTTGTGTGTGCGCGTGTATGTAAT
B9: CACACA_site1627 (dsDNA)
DNA 1: AAGAAAAAGATGCGCATACACACAGATGAATAACAA
DNA 2: TTGTTATTCATCTGTGTGTATGCGCATCTTTTTCTT
B10: CACACA_negctrl_site473 (dsDNA)
DNA 1: TATTTAATTATATAAAATTAAATTTTTAATTCTTCC
DNA 2: GGAAGAATTAAAAATTTAATTTTATATAATTAAATA
B11: CACACA_negctrl_site1823 (dsDNA)
DNA 1: TATTTCATCTTATTTTAGGAAAAACTAATATATAAG
DNA 2: CTTATATATTAGTTTTTCCTAAAATAAGATGAAATA
B12: CACACA_negctrl_site884 (dsDNA)
DNA 1: TATTAATCTTTTTTTAAACAAAAAATTAAGCAAATT
DNA 2: AATTTGCTTAATTTTTTGTTTAAAAAAAGATTAATA
B13: CACACA_site1293 (dsDNA)
DNA 1: CACACCCACAAAAACACACACAAAGGTGTTCTTATA
DNA 2: TATAAGAACACCTTTGTGTGTGTTTTTGTGGGTGTG
B14: CACACA_site1322 (dsDNA)
DNA 1: CACGAACACAAACACAAACACACATCATATATATAT
DNA 2: ATATATATATGATGTGTGTTTGTGTTTGTGTTCGTG
B15: CACACA_site3522 (dsDNA)
DNA 1: ATATAAAATAGACACGCACACAAAAAAAAAAAAAAA
DNA 2: TTTTTTTTTTTTTTTGTGTGCGTGTCTATTTTATAT
B16: CACACA_negctrl_site1568 (dsDNA)
DNA 1: TTTTTTATAAATCAAATGAAAAATAAACTATTCAGA
DNA 2: TCTGAATAGTTTATTTTTCATTTGATTTATAAAAAA
B17: CACACA_site2284 (dsDNA)
DNA 1: AAAAAAAAAAAAGGCACACAAACATATGTAGACATA
DNA 2: TATGTCTACATATGTTTGTGTGCCTTTTTTTTTTTT
B18: CACACA_site4122 (dsDNA)
DNA 1: AAAACAAACACATTTACACACATAAATAAATCAATT
DNA 2: AATTGATTTATTTATGTGTGTAAATGTGTTTGTTTT
B19: CACACA_negctrl_site1467 (dsDNA)
DNA 1: TTATATAATGACAAAAAAAAAAAAAAAAAAAAAAAA
DNA 2: TTTTTTTTTTTTTTTTTTTTTTTTGTCATTATATAA
B20: CACACA_site1127 (dsDNA)
DNA 1: TATTTTTCCATATGCACACACACCGTATATATAATA
DNA 2: TATTATATATACGGTGTGTGTGCATATGGAAAAATA
B21: CACACA_negctrl_site861 (dsDNA)
DNA 1: TTTTAAAAATTAAAAAAATTAAATGTAAAAAAATGA
DNA 2: TCATTTTTTTACATTTAATTTTTTTAATTTTTAAAA
B22: CACACA_negctrl_site736 (dsDNA)
DNA 1: TACTTATATTATTTTATTATTAAATTTAAAACGAAA
DNA 2: TTTCGTTTTAAATTTAATAATAAAATAATATAAGTA
B23: CACACA_negctrl_site159 (dsDNA)
DNA 1: TTTTTTTATTATTCTTATATAAAAATTTTTTTTAAT
DNA 2: ATTAAAAAAAATTTTTATATAAGAATAATAAAAAAA
B24: CACACA_site2704 (dsDNA)
DNA 1: GCCATTGTACCATCCACACACATATATATATGTATA
DNA 2: TATACATATATATATGTGTGTGGATGGTACAATGGC
B25: CACACA_negctrl_site1118 (dsDNA)
DNA 1: ATTATCAAAAAAAAAAAAAAAAAAAAAAAAAAAAAA
DNA 2: TTTTTTTTTTTTTTTTTTTTTTTTTTTTTTGATAAT
B26: CACACA_site8178 (dsDNA)
DNA 1: TACATATAAACAATAACACACACCTAGGTACATGGA
DNA 2: TCCATGTACCTAGGTGTGTGTTATTGTTTATATGTA
B27: CACACA_negctrl_site1701 (dsDNA)
DNA 1: TTTTTTCAATTTTTTTTAAATAAACCACAAAAAAAA
DNA 2: TTTTTTTTGTGGTTTATTTAAAAAAAATTGAAAAAA
B28: CACACA_site8515 (dsDNA)
DNA 1: ATAATATATATACAAACACACAATTGCGTCCACATT
DNA 2: AATGTGGACGCAATTGTGTGTTTGTATATATATTAT
B29: CACACA_negctrl_site1706 (dsDNA)
DNA 1: TTACACATATTTTTAATTATTCTGAATTCAAAAAAA
DNA 2: TTTTTTTGAATTCAGAATAATTAAAAATATGTGTAA
B30: CACACA_negctrl_site8 (dsDNA)
DNA 1: AAATTATATATAATAAATAATTTCTTTTTCTAAAAG
DNA 2: CTTTTAGAAAAAGAAATTATTTATTATATATAATTT
B31: CACACA_site841 (dsDNA)
DNA 1: GGCATGACTATCTGCACACATAAAAATAAGAAATAC
DNA 2: GTATTTCTTATTTTTATGTGTGCAGATAGTCATGCC
B32: CACACA_negctrl_site1629 (dsDNA)
DNA 1: TTTTTCTTTCTATTTATCAATATTAAAAAAAAAAAA
DNA 2: TTTTTTTTTTTTAATATTGATAAATAGAAAGAAAAA
B33: CACACA_site651 (dsDNA)
DNA 1: ATACATATAGGATGCACACATAATTCAAATACAATA
DNA 2: TATTGTATTTGAATTATGTGTGCATCCTATATGTAT
B34: CACACA_negctrl_site775 (dsDNA)
DNA 1: TTGTATCTTCATTTTATCAGAAAAAAAAAAAAAAAT
DNA 2: ATTTTTTTTTTTTTTTCTGATAAAATGAAGATACAA
B35: CACACA_negctrl_site333 (dsDNA)
DNA 1: GAATGAATGATAAATTTTTTTTTCTTTTTTTTTTTG
DNA 2: CAAAAAAAAAAAGAAAAAAAAATTTATCATTCATTC
B36: CACACA_site5877 (dsDNA)
DNA 1: TATAGCATATCTCACACACACATAATGAATATTATA
DNA 2: TATAATATTCATTATGTGTGTGTGAGATATGCTATA
B37: CACACA_site9215 (dsDNA)
DNA 1: ATATATATATATATTCCACACACACCCAAAAAAAAA
DNA 2: TTTTTTTTTGGGTGTGTGTGGAATATATATATATAT
B38: CACACA_negctrl_site108 (dsDNA)
DNA 1: TTTTTAATTTAAAAAAATAATATTTTATATTCCGAA
DNA 2: TTCGGAATATAAAATATTATTTTTTTAAATTAAAAA
B39: CACACA_negctrl_site442 (dsDNA)
DNA 1: TGGTTTCAATAATTAATAAAATATATTATTGTGAAA
DNA 2: TTTCACAATAATATATTTTATTAATTATTGAAACCA
B40: CACACA_negctrl_site1281 (dsDNA)
DNA 1: TAAAATTAAATGAAATCATTATTCATTTTTATTTTA
DNA 2: TAAAATAAAAATGAATAATGATTTCATTTAATTTTA
B41: CACACA_site8658 (dsDNA)
DNA 1: AACGAAAGAAAAAAAGCACACACAGTTTTGAGCAAT
DNA 2: ATTGCTCAAAACTGTGTGTGCTTTTTTTCTTTCGTT

The data set has as its target T1, AP2-LT D1. Description: gcPBM; about 25 ug protein; PBS, 1% milk, 0.2 mg/ml BSA, salmon testes DNA, 0.03% Triton X-100. The settings on record: tags: N-terminal GST (pGEX-4T-1), kept; label: surface-attached array probe.
With B1, the binding signal is 8.27 ln median PBM intensity, better of two orientations.
Regarding B2, the binding signal was 8.37 ln median PBM intensity, better of two orientations.
As for B3, the binding signal was 9.65 ln median PBM intensity, better of two orientations.
The value for B4 was 8.49 ln median PBM intensity, better of two orientations; that for B5 was 9.69 ln median PBM intensity, better of two orientations; that for B6 was 8.47 ln median PBM intensity, better of two orientations.
With B7 the figure was 9.52 ln median PBM intensity, better of two orientations.
Consider B8, for which the binding signal was 9.87 ln median PBM intensity, better of two orientations.
As to B9, the binding signal was 9.7 ln median PBM intensity, better of two orientations.
Turning to B10, the binding signal is 8.5 ln median PBM intensity, better of two orientations.
The value for B11 was 8.32 ln median PBM intensity, better of two orientations.
As to B12, the binding signal is 8.28 ln median PBM intensity, better of two orientations.
The value for B13 was 9.62 ln median PBM intensity, better of two orientations; that for B14 was 9.81 ln median PBM intensity, better of two orientations.
The value for B15 was 9.59 ln median PBM intensity, better of two orientations; that for B16 was 8.3 ln median PBM intensity, better of two orientations; that for B17 was 9.56 ln median PBM intensity, better of two orientations.
With B18 the figure was 9.58 ln median PBM intensity, better of two orientations; with B19, 8.49 ln median PBM intensity, better of two orientations.
Regarding B20, the binding signal was 9.79 ln median PBM intensity, better of two orientations.
With B21 the figure was 8.44 ln median PBM intensity, better of two orientations.
The value for B22 was 8.39 ln median PBM intensity, better of two orientations.
With B23 the figure was 8.48 ln median PBM intensity, better of two orientations; with B24, 9.64 ln median PBM intensity, better of two orientations; with B25, 8.29 ln median PBM intensity, better of two orientations.
Take B26: the binding signal was 9.55 ln median PBM intensity, better of two orientations.
With B27 the figure was 8.15 ln median PBM intensity, better of two orientations.
The value for B28 was 9.67 ln median PBM intensity, better of two orientations.
With B29 the figure was 8.38 ln median PBM intensity, better of two orientations.
Consider B30, for which the binding signal is 8.42 ln median PBM intensity, better of two orientations.
The value for B31 was 9.74 ln median PBM intensity, better of two orientations.
The value for B32 was 8.1 ln median PBM intensity, better of two orientations; that for B33 was 9.54 ln median PBM intensity, better of two orientations; that for B34 was 8.43 ln median PBM intensity, better of two orientations.
With B35 the figure was 8.4 ln median PBM intensity, better of two orientations; with B36, 9.72 ln median PBM intensity, better of two orientations; with B37, 9.85 ln median PBM intensity, better of two orientations.
Turning to B38, the binding signal was 8.25 ln median PBM intensity, better of two orientations.
With B39 the figure was 8.47 ln median PBM intensity, better of two orientations; with B40, 8.47 ln median PBM intensity, better of two orientations; with B41, 9.6 ln median PBM intensity, better of two orientations.
